# System: Escherichia coli TOP10
# Experiment: shrunken log2 fold change of peptide-encoding DNA abundance (4.5 h post-induction vs induction); higher = less antimicrobial activity (less host growth inhibition)
# Conditions: time post-induction: 4.5 h; library: site-saturation at positions 5, 18, 19, 20
# 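Also: peptides expressed intracellularly from a pBAD plasmid library in pooled LB shake-flask culture, induced with 0.3% L-arabinose, DNA abundance read by NGS, three biological replicates, DESeq2 with apeglm shrinkage.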
row,Sequence,shrunken log2 fold change
1,RRIRSRPPRLPRPRPRPAKRPRP,0.214
2,RRIRRRPPRLPRPRPRPWIYPRP,-0.118
3,RRIRPRPPRLPRPRPRPKLNPRP,0.0891
4,RRIRVRPPRLPRPRPRPIFHPRP,-0.0258
5,RRIRTRPPRLPRPRPRPWREPRP,-0.00743
6,RRIRMRPPRLPRPRPRPDCQPRP,1.37
7,RRIRKRPPRLPRPRPRPYNLPRP,-0.119
8,RRIRARPPRLPRPRPRPGKCPRP,0.0981
9,RRIRGRPPRLPRPRPRPLCRPRP,0.598
10,RRIRPRPPRLPRPRPRPFNIPRP,-0.293
11,RRIRQRPPRLPRPRPRPSCHPRP,-0.253
12,RRIRCRPPRLPRPRPRPPFHPRP,-0.224
13,RRIRLRPPRLPRPRPRPYPTPRP,-0.317
14,RRIRKRPPRLPRPRPRPLVKPRP,0.195
15,RRIRVRPPRLPRPRPRPHCYPRP,-0.234
16,RRIRGRPPRLPRPRPRPCNVPRP,-0.037
17,RRIRFRPPRLPRPRPRPCHCPRP,-0.0994
18,RRIRIRPPRLPRPRPRPHYWPRP,-0.85
19,RRIRPRPPRLPRPRPRPMNAPRP,-0.158
20,RRIRGRPPRLPRPRPRPWNTPRP,0.111
21,RRIRARPPRLPRPRPRPCETPRP,0.00546
22,RRIRWRPPRLPRPRPRPWHIPRP,0.106
23,RRIRPRPPRLPRPRPRPHVYPRP,-0.552
24,RRIRKRPPRLPRPRPRPCWTPRP,-0.0905
25,RRIRWRPPRLPRPRPRPKSDPRP,0.473

row,Sequence,shrunken log2 fold change
1,RRIRTRPPRLPRPRPRPNMWPRP,-0.365
2,RRIRPRPPRLPRPRPRPEPFPRP,0.454
3,RRIRYRPPRLPRPRPRPKHCPRP,-0.611
4,RRIRERPPRLPRPRPRPAIFPRP,-0.12
5,RRIRKRPPRLPRPRPRPDQDPRP,0.0345
6,RRIRDRPPRLPRPRPRPMYQPRP,-0.075
7,RRIRFRPPRLPRPRPRPVVCPRP,-0.0801
8,RRIRSRPPRLPRPRPRPAGNPRP,-0.0422
9,RRIRSRPPRLPRPRPRPPGAPRP,0.61
10,RRIRWRPPRLPRPRPRPPFFPRP,0.224
11,RRIRHRPPRLPRPRPRPHMWPRP,0.104
12,RRIRIRPPRLPRPRPRPWKWPRP,-0.00992
13,RRIRKRPPRLPRPRPRPEDMPRP,0.0387
14,RRIRGRPPRLPRPRPRPTKYPRP,0.189
15,RRIRPRPPRLPRPRPRPKPHPRP,0.294
16,RRIRHRPPRLPRPRPRPNMCPRP,-0.126
17,RRIRDRPPRLPRPRPRPCKAPRP,-0.0139
18,RRIRIRPPRLPRPRPRPGKPPRP,0.217
19,RRIRLRPPRLPRPRPRPMTVPRP,-0.108
20,RRIRGRPPRLPRPRPRPISNPRP,0.0729
21,RRIRRRPPRLPRPRPRPLPCPRP,-0.0345
22,RRIRWRPPRLPRPRPRPNASPRP,0.267
23,RRIRCRPPRLPRPRPRPRQEPRP,0.121
24,RRIRIRPPRLPRPRPRPPHMPRP,-0.416
25,RRIRTRPPRLPRPRPRPCIWPRP,-0.0258

row,Sequence,shrunken log2 fold change
1,RRIRKRPPRLPRPRPRPLRMPRP,0.236
2,RRIRGRPPRLPRPRPRPLANPRP,0.835
3,RRIRGRPPRLPRPRPRPVNGPRP,-0.0658
4,RRIRTRPPRLPRPRPRPGFVPRP,-0.0603
5,RRIRNRPPRLPRPRPRPHWGPRP,-0.0266
6,RRIRMRPPRLPRPRPRPYCNPRP,-0.189
7,RRIRTRPPRLPRPRPRPPEMPRP,0.237
8,RRIRLRPPRLPRPRPRPVSTPRP,0.255
9,RRIRNRPPRLPRPRPRPCERPRP,-0.00992
10,RRIRLRPPRLPRPRPRPPYVPRP,-0.0415
11,RRIRSRPPRLPRPRPRPQFYPRP,-0.769
12,RRIRWRPPRLPRPRPRPDICPRP,-0.0379
13,RRIRQRPPRLPRPRPRPKADPRP,0.143
14,RRIRRRPPRLPRPRPRPPKYPRP,-0.14
15,RRIRTRPPRLPRPRPRPKVHPRP,-0.429
16,RRIRWRPPRLPRPRPRPEFPPRP,0.0195
17,RRIRTRPPRLPRPRPRPTRWPRP,0.301
18,RRIRQRPPRLPRPRPRPIFKPRP,-0.208
19,RRIRTRPPRLPRPRPRPFPPPRP,-0.0137
20,RRIRKRPPRLPRPRPRPTLAPRP,1.19
21,RRIRGRPPRLPRPRPRPGEFPRP,0.329
22,RRIRWRPPRLPRPRPRPSWFPRP,-0.0343
23,RRIRQRPPRLPRPRPRPKVQPRP,0.0205
24,RRIRKRPPRLPRPRPRPFHCPRP,-0.0128
25,RRIRPRPPRLPRPRPRPYFYPRP,-0.787

row,Sequence,shrunken log2 fold change
1,RRIRARPPRLPRPRPRPTNYPRP,-0.137
2,RRIRGRPPRLPRPRPRPYAQPRP,0.104
3,RRIRGRPPRLPRPRPRPAGSPRP,1.06
4,RRIRKRPPRLPRPRPRPKNRPRP,0.226
5,RRIRWRPPRLPRPRPRPHKPPRP,-0.119
6,RRIRERPPRLPRPRPRPYMGPRP,-1.01
7,RRIRCRPPRLPRPRPRPDHCPRP,0.00334
8,RRIRMRPPRLPRPRPRPACEPRP,0.903
9,RRIRSRPPRLPRPRPRPSRGPRP,0.483
10,RRIRERPPRLPRPRPRPWPSPRP,0.134
11,RRIRRRPPRLPRPRPRPGLQPRP,-0.0644
12,RRIRPRPPRLPRPRPRPTCLPRP,-0.105
13,RRIRVRPPRLPRPRPRPFWVPRP,0.421
14,RRIRFRPPRLPRPRPRPYCCPRP,-0.324
15,RRIRVRPPRLPRPRPRPFYKPRP,-0.502
16,RRIRNRPPRLPRPRPRPPFYPRP,-0.403
17,RRIRHRPPRLPRPRPRPNCLPRP,-0.0125
18,RRIRPRPPRLPRPRPRPVSLPRP,-0.104
19,RRIRWRPPRLPRPRPRPDAMPRP,0.393
20,RRIRKRPPRLPRPRPRPGPKPRP,1.15
21,RRIRWRPPRLPRPRPRPCHDPRP,0.0415
22,RRIRKRPPRLPRPRPRPQMGPRP,0.0203
23,RRIRIRPPRLPRPRPRPMPHPRP,-0.0728
24,RRIRFRPPRLPRPRPRPIHRPRP,-0.0271
25,RRIRYRPPRLPRPRPRPNSLPRP,-1.11

row,Sequence,shrunken log2 fold change
1,RRIRYRPPRLPRPRPRPHHPPRP,-0.38
2,RRIRSRPPRLPRPRPRPEYCPRP,0.184
3,RRIRERPPRLPRPRPRPWTYPRP,-0.104
4,RRIRGRPPRLPRPRPRPTMIPRP,0.0786
5,RRIRHRPPRLPRPRPRPHCRPRP,0.0364
6,RRIRPRPPRLPRPRPRPAAMPRP,0.302
7,RRIRQRPPRLPRPRPRPELRPRP,-0.043
8,RRIRGRPPRLPRPRPRPTDVPRP,0.307
9,RRIRCRPPRLPRPRPRPQYTPRP,-0.946
10,RRIRVRPPRLPRPRPRPMYPPRP,-0.413
11,RRIRKRPPRLPRPRPRPSIFPRP,-0.0205
12,RRIRHRPPRLPRPRPRPSVPPRP,-0.0518
13,RRIRHRPPRLPRPRPRPYYNPRP,-1.28
14,RRIRKRPPRLPRPRPRPMKEPRP,0.0132
15,RRIRLRPPRLPRPRPRPSIMPRP,-0.319
16,RRIRNRPPRLPRPRPRPIMVPRP,0.00732
17,RRIRLRPPRLPRPRPRPNARPRP,0.1
18,RRIRNRPPRLPRPRPRPSMTPRP,0.0898
19,RRIRGRPPRLPRPRPRPICVPRP,0.269
20,RRIRERPPRLPRPRPRPLTFPRP,-0.693
21,RRIRPRPPRLPRPRPRPMSCPRP,-0.043
22,RRIRDRPPRLPRPRPRPWVLPRP,-0.00957
23,RRIRTRPPRLPRPRPRPNANPRP,-0.0879
24,RRIRGRPPRLPRPRPRPWGNPRP,0.0898
25,RRIRIRPPRLPRPRPRPGTDPRP,-0.114

row,Sequence,shrunken log2 fold change
1,RRIRWRPPRLPRPRPRPDLEPRP,0.974
2,RRIRNRPPRLPRPRPRPPFPPRP,0.309
3,RRIRKRPPRLPRPRPRPANGPRP,0.566
4,RRIRSRPPRLPRPRPRPVPNPRP,0.105
5,RRIRRRPPRLPRPRPRPHNSPRP,0.0175
6,RRIRCRPPRLPRPRPRPDKAPRP,-0.0544
7,RRIRNRPPRLPRPRPRPGAHPRP,0.0408
8,RRIRGRPPRLPRPRPRPTGAPRP,1.31
9,RRIRERPPRLPRPRPRPIGRPRP,0.0419
10,RRIRHRPPRLPRPRPRPAVHPRP,0.0645
11,RRIRTRPPRLPRPRPRPQSWPRP,0.234
12,RRIRPRPPRLPRPRPRPENGPRP,-0.0225
13,RRIRQRPPRLPRPRPRPLLHPRP,-0.182
14,RRIRWRPPRLPRPRPRPFMSPRP,-0.0321
15,RRIRKRPPRLPRPRPRPLWPPRP,0.46
16,RRIRVRPPRLPRPRPRPTDTPRP,0.817
17,RRIRGRPPRLPRPRPRPCWQPRP,0.153
18,RRIRRRPPRLPRPRPRPEQFPRP,0.212
19,RRIRARPPRLPRPRPRPDAHPRP,0.876
20,RRIRKRPPRLPRPRPRPALFPRP,0.497
21,RRIRARPPRLPRPRPRPGCPPRP,0.343
22,RRIRQRPPRLPRPRPRPRRMPRP,0.455
23,RRIRKRPPRLPRPRPRPTGRPRP,0.609
24,RRIRTRPPRLPRPRPRPAWRPRP,0.594
25,RRIRLRPPRLPRPRPRPHQIPRP,-0.249

# Source: the supplement of paper PMC9112550, “Optimization of the antimicrobial peptide Bac7 by deep mutational scanning” (BMC Biology, 2022)
